# Paper PMC4764120, “Crystal Structure of Alcohol Oxidase from Pichia pastoris” (PLoS ONE, 2016)
# Target: the molecule itself
# Assay: crystal structure; X-ray, 2.35 Å, space group P21, eight monomers in the asymmetric unit; crystals grown at 4°C in 100 mM HEPES pH 7.5, 200 mM CaCl2, 33.3% PEG 400; interfaces analysed with PISA
protein,measurement,value
"alcohol oxidase AOX1 from Pichia pastoris (enzyme, UniProt P04842 1-663, looked up, Alcohol oxidase AOX1, Pichia pastoris, UniProt P04842, 663 residues as printed; identified by mass spectrometry as the host's own protein; the final crystallographic model holds residues 2 to 663 of each monomer; No tag: the protein comes from the expression host itself; also called methanol oxidase AOX1) MAIPEEFDILVLGGGSSGSCIAGRLANLDHSLKVGLIEAGENNLNNPWVYLPGIYPRNMKLDSKTASFYTSNPSPHLNGRRAIVPCANVLGGGSSINFMMYTRGSASDYDDFQAEGWKTKDLLPLMKKTETYQRACNNPDIHGFEGPIKVSFGNYTYPVCQDFLRASESQGIPYVDDLEDLVTAHGAEHWLKWINRDTGRRSDSAHAFVHSTMRNHDNLYLICNTKVDKIIVEDGRAAAVRTVPSKPLNPKKPSHKIYRARKQIVLSCGTISSPLVLQRSGFGDPIKLRAAGVKPLVNLPGVGRNFQDHYCFFSPYRIKPQYESFDDFVRGDAEIQKRVFDQWYANGTGPLATNGIEAGVKIRPTPEELSQMDESFQEGYREYFEDKPDKPVMHYSIIAGFFGDHTKIPPGKYMTMFHFLEYPFSRGSIHITSPDPYAAPDFDPGFMNDERDMAPMVWAYKKSRETARRMDHFAGEVTSHHPLFPYSSEARALEMDLETSNAYGGPLNLSAGLAHGSWTQPLKKPTAKNEGHVTSNQVELHPDIEYDEEDDKAIENYIREHTETTWHCLGTCSIGPREGSKIVKWGGVLDHRSNVYGVKGLKVGDLSVCPDNVGCNTYTTALLIGEKTATLVGEDLGYSGEALDMTVPQFKLGTYEKTGLARF",stoichiometry N,8
